Type: physicochemical
Description: Cell-free reactions were then performed. In particular, preparative reactions are carried out using the Invitrogen's Expressway Maxi kit or Roche's RTS 500 ProteoMaster Kit. Basically, lyophilized reaction components (Lysate, Reaction Mix, Amino Acid Mix, Methionine) are dissolved in Reconstitution Buffer and combined as specified by the manufacturer. For co-expression a total of 5 μg of each plasmid DNA (bOp and Δ49A1) was added to the lysate mixture with added DMPC vesicles and retinal cofactor (see below). The reactions were incubated at 30° C. or 37° C. for 4-24 h. For membrane protein survey studies co-expression of 0.2 ug Δ49A1 DNA and 1 ug of each membrane protein DNA was added to the cell-free mixture where [^35S]Met (135 mCi/mmol final) (Perkin Elmer, Waltham, Mass.) was added in place of methionine. The soluble fraction was obtained by centrifuging the reactions at 14000×g for 5 min. Autoradiograms were generated by overnight exposures to proteins separated by SDS-PAGE (data not shown). Percent solubility was determined using ImageJ software (U. S. National Institutes of Health) to quantize autoradiogram bands for the soluble fractions in the presence and absence of apolipoprotein Δ49A1.
All were expressed in the presence of 30-50 μM all-trans-retinal and 2 mg/mL DMPC. […]
The NLPs were also analyzed by SDS Page. […]

B1: bR: bacteriorhodopsin from H. salinarium, seven transmembrane protein, cell-free expressed from bOp with all-trans retinal (protein, UniProt P02945 14-262, looked up)
Bacteriorhodopsin: QAQITGRPEWIWLALGTALMGLGTLYFLVKGMGVSDPDAKKFYAITTLVPAIAFTMYLSMLLGYGLTMVPFGGEQNPIYWARYADWLFTTPLLLLDLALLVDADQGTILALVGADGIMIGTGLVGALTKVYSYRFVWWAISTAAMLYILYVLFFGFTSKAESMRPEVASTFKVLRNVTVVLWSAYPVVWLIGSEGAGIVPLNIETLLFMVLDVSAKVGFGLILLRSRAIFGEAEAPEPSAGDGAAATSD
modifications: all-trans retinal chromophore
solubility of bR: insoluble

— patent publication US11300572B2, “Methods and systems for producing nanolipoprotein particles” (LAWRENCE LIVERMORE NATIONAL SECURITY, LLC, priority 2007, dated 2022)
